Data as given in the supplement of paper PMC9732359.
± gives the uncertainty stated by the source.

Assay: protein stability index of a GFP-peptide fusion (yeast GPS) (PSI 1-4); higher = more stable; sorted into four equal gates, so the index is relative within each strain
Method in brief: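 Plasmids isolated from each sorting gate were PCR-amplified and Illumina-sequenced, and barcodes assigned the reads to strains. The gates, four of equal size, were set by GFP/Cherry fluorescence ratio on mid-log cultures in leucine-free medium. These cultures were yeast carrying a pooled library of tiled 17-residue yeast protein peptides fused downstream of GFP on a plasmid that also expresses Cherry. The protein stability index is the sum of every gate's read frequency times its gate number.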

## DQFITSLKCTDPYELKG [ITC1]
doa10∆
  protein stability index: 3.02 ± 0.12
pdr5∆
  protein stability index: 2.66 ± 0.09
san1∆
  protein stability index: 2.78 ± 0.088
ubr1∆
  protein stability index: 2.95 ± 0.1

## VDEPMTSAVELGAIEQI [YJL039C/NUP192]
doa10∆
  protein stability index: 3.41 ± 0.3
pdr5∆
  protein stability index: 3.66 ± 0.17
san1∆
  protein stability index: 3 ± 0.16
ubr1∆
  protein stability index: 2.87 ± 0.28

## TDAHTPLARNYIKSMDL [RPR2]
doa10∆
  protein stability index: 2.67 ± 0.044
pdr5∆
  protein stability index: 2.73 ± 0.044
san1∆
  protein stability index: 2.68 ± 0.041
ubr1∆
  protein stability index: 2.86 ± 0.032

## NDNNLKKLESQESLVKL [RPN5]
doa10∆
  protein stability index: 3.01 ± 0.071
pdr5∆
  protein stability index: 2.96 ± 0.064
san1∆
  protein stability index: 2.76 ± 0.06
ubr1∆
  protein stability index: 2.97 ± 0.071

## PTGGKAKLSEGTSFRRK [RPS27A]
doa10∆
  protein stability index: 3.4 ± 0.081
pdr5∆
  protein stability index: 3.33 ± 0.11
san1∆
  protein stability index: 3.33 ± 0.065
ubr1∆
  protein stability index: 3.33 ± 0.059

## IKIVYALTTIKGVGRRY [RPS18A]
doa10∆
  protein stability index: 1.87 ± 0.12
pdr5∆
  protein stability index: 1.95 ± 0.078
san1∆
  protein stability index: 2.06 ± 0.17
ubr1∆
  protein stability index: 1.61 ± 0.075

## SVTETESISQTPISNEQ [SRP68]
doa10∆
  protein stability index: 2.89 ± 0.099
pdr5∆
  protein stability index: 3.01 ± 0.078
san1∆
  protein stability index: 2.82 ± 0.063
ubr1∆
  protein stability index: 2.96 ± 0.082

## KTPLLKQYLSASFSLKN [RPL6A]
doa10∆
  protein stability index: 2.01 ± 0.051
pdr5∆
  protein stability index: 1.98 ± 0.054
san1∆
  protein stability index: 2.25 ± 0.059
ubr1∆
  protein stability index: 2.27 ± 0.042

## LKKGEQKTQELNAKYQS [ISW2]
doa10∆
  protein stability index: 3.31 ± 0.063
pdr5∆
  protein stability index: 3.22 ± 0.047
san1∆
  protein stability index: 3.29 ± 0.039
ubr1∆
  protein stability index: 3.29 ± 0.055

## APKWYPSEDVAAPKKTR [RPL6B]
doa10∆
  protein stability index: 2.13 ± 0.093
pdr5∆
  protein stability index: 2.09 ± 0.065
san1∆
  protein stability index: 1.87 ± 0.092
ubr1∆
  protein stability index: 1.98 ± 0.1

## NSSKYYINEKESSYTEV [SMC4]
doa10∆
  protein stability index: 3.2 ± 0.22
pdr5∆
  protein stability index: 2.38 ± 0.1
san1∆
  protein stability index: 2.43 ± 0.12
ubr1∆
  protein stability index: 1.89 ± 0.11

## PLGILHIPICVTFSFFN [RRP45]
doa10∆
  protein stability index: 1.29 ± 0.05
pdr5∆
  protein stability index: 1.26 ± 0.06
san1∆
  protein stability index: 1.2 ± 0.096
ubr1∆
  protein stability index: 1.12 ± 0.045

## FKLDKDTSNWELSDSWR [YGL100W/SEH1]
doa10∆
  protein stability index: 3.37 ± 0.068
pdr5∆
  protein stability index: 3.45 ± 0.055
san1∆
  protein stability index: 3.39 ± 0.037
ubr1∆
  protein stability index: 3.31 ± 0.042

## KFIALCEQQPSQEREFS [SIN4]
doa10∆
  protein stability index: 2.78 ± 0.055
pdr5∆
  protein stability index: 2.82 ± 0.063
san1∆
  protein stability index: 2.67 ± 0.088
ubr1∆
  protein stability index: 2.79 ± 0.056

## HLSSKTGLHFGRLSLRS [QCR10]
doa10∆
  protein stability index: 3.24 ± 0.2
pdr5∆
  protein stability index: 3.06 ± 0.11
san1∆
  protein stability index: 3.06 ± 0.11
ubr1∆
  protein stability index: 3.14 ± 0.12

## ANLPWLGKAQNWAKFTA [RPN2]
doa10∆
  protein stability index: 3.34 ± 0.085
pdr5∆
  protein stability index: 3.39 ± 0.091
san1∆
  protein stability index: 3.11 ± 0.087
ubr1∆
  protein stability index: 3.52 ± 0.082

## PQMQCALQNLSQLPITP [YGL172W/NUP49]
doa10∆
  protein stability index: 2.06 ± 0.087
pdr5∆
  protein stability index: 2.23 ± 0.098
san1∆
  protein stability index: 2.12 ± 0.1
ubr1∆
  protein stability index: 2.23 ± 0.068

## LRGSLLSRKPSDNKKRS [RPC82]
doa10∆
  protein stability index: 2.96 ± 0.13
pdr5∆
  protein stability index: 3.6 ± 0.14
san1∆
  protein stability index: 3.27 ± 0.1
ubr1∆
  protein stability index: 3.01 ± 0.13

## TEQFCATLNYIDKNHGF [SRB7]
doa10∆
  protein stability index: 2.26 ± 0.055
pdr5∆
  protein stability index: 2.99 ± 0.061
san1∆
  protein stability index: 3.2 ± 0.057
ubr1∆
  protein stability index: 2.47 ± 0.052

## LRGEYNDLQSETKTKKE [SMC4]
pdr5∆
  protein stability index: 3.4 ± 0.087
san1∆
  protein stability index: 3.24 ± 0.072
ubr1∆
  protein stability index: 2.82 ± 0.066

## IKGSKLSLGEAFKKIDA [COR1]
doa10∆
  protein stability index: 3.29 ± 0.28
san1∆
  protein stability index: 2.29 ± 0.16
ubr1∆
  protein stability index: 2.64 ± 0.093

## FRSLFFRSYMDQEKKYG [RPB2]
doa10∆
  protein stability index: 1.7 ± 0.051
pdr5∆
  protein stability index: 2.14 ± 0.07
san1∆
  protein stability index: 2.61 ± 0.078
ubr1∆
  protein stability index: 2.57 ± 0.038

## ESKGNAFKHKRALVEHI [RPL19A]
doa10∆
  protein stability index: 3.36 ± 0.087
pdr5∆
  protein stability index: 3.38 ± 0.1
san1∆
  protein stability index: 3.44 ± 0.047
ubr1∆
  protein stability index: 3.29 ± 0.054

## MTRSSVLADALNAINNA [RPS22A]
doa10∆
  protein stability index: 2.86 ± 0.052
pdr5∆
  protein stability index: 3.27 ± 0.056
san1∆
  protein stability index: 2.72 ± 0.054
ubr1∆
  protein stability index: 2.99 ± 0.045

## IEKNVMESIGSDILTAE [RRP4]
doa10∆
  protein stability index: 2.78 ± 0.092
pdr5∆
  protein stability index: 3.04 ± 0.19
san1∆
  protein stability index: 2.95 ± 0.2

## WLLHNGFSTGIGDTIAD [RPO21]
doa10∆
  protein stability index: 3.11 ± 0.16
pdr5∆
  protein stability index: 3.24 ± 0.17
san1∆
  protein stability index: 3.26 ± 0.093
ubr1∆
  protein stability index: 3.06 ± 0.15

## SLTYKKISLRDICLKLN [RPN3]
doa10∆
  protein stability index: 2.38 ± 0.05
pdr5∆
  protein stability index: 2.17 ± 0.047
san1∆
  protein stability index: 1.44 ± 0.13
ubr1∆
  protein stability index: 2.05 ± 0.04

## VNNRDSEKGFSKEQIHG [YCS4]
pdr5∆
  protein stability index: 3.49 ± 0.18

## GGLFGNSAQNNSTTSGG [YGR119C/NUP57]
doa10∆
  protein stability index: 3.08 ± 0.069
pdr5∆
  protein stability index: 3.36 ± 0.11
san1∆
  protein stability index: 2.78 ± 0.068
ubr1∆
  protein stability index: 3.06 ± 0.096

## DGVTHALYPQEARLRNL [RPB2]
doa10∆
  protein stability index: 3.22 ± 0.27
pdr5∆
  protein stability index: 3.06 ± 0.22
san1∆
  protein stability index: 3.23 ± 0.13

## SESKDSDKPSLPSAVDG [YLR335W/NUP2]
doa10∆
  protein stability index: 3.41 ± 0.1
pdr5∆
  protein stability index: 3.38 ± 0.1
san1∆
  protein stability index: 3.28 ± 0.11
ubr1∆
  protein stability index: 2.95 ± 0.15

## YISFIKDDRFVPVRKFK [RPN2]
doa10∆
  protein stability index: 2.41 ± 0.048
pdr5∆
  protein stability index: 2.82 ± 0.039
san1∆
  protein stability index: 2.96 ± 0.041
ubr1∆
  protein stability index: 2.85 ± 0.031

## ITLLPSSLKESSPDTMK [SNF12]
doa10∆
  protein stability index: 2.96 ± 0.19
ubr1∆
  protein stability index: 2.27 ± 0.25

## IEAEEAEEIGVEHLLRD [RPN8]
doa10∆
  protein stability index: 3.1 ± 0.19
san1∆
  protein stability index: 3.15 ± 0.13
ubr1∆
  protein stability index: 3.23 ± 0.068

## KFGACVAQGIMNAGGRN [RPN2]
doa10∆
  protein stability index: 3.02 ± 0.14
pdr5∆
  protein stability index: 2.73 ± 0.28
san1∆
  protein stability index: 2.52 ± 0.23
ubr1∆
  protein stability index: 2.52 ± 0.13

## DFLLSDWNKRFSHLAGG [BRR2]
doa10∆
  protein stability index: 2.71 ± 0.053
pdr5∆
  protein stability index: 2.82 ± 0.055
san1∆
  protein stability index: 2.96 ± 0.065
ubr1∆
  protein stability index: 2.85 ± 0.048

## IDFFKTDDSFEDKVFAS [BRN1]
doa10∆
  protein stability index: 3.02 ± 0.13
pdr5∆
  protein stability index: 2.88 ± 0.06
san1∆
  protein stability index: 3 ± 0.093
ubr1∆
  protein stability index: 2.89 ± 0.06

## MCHIVRKFHELNDHIDD [GRR1]
doa10∆
  protein stability index: 2.13 ± 0.053
pdr5∆
  protein stability index: 2.31 ± 0.071
san1∆
  protein stability index: 2.18 ± 0.079
ubr1∆
  protein stability index: 1.72 ± 0.04

## MAKRTKKVGITGKYGVR [RPL43A]
doa10∆
  protein stability index: 3.36 ± 0.11
pdr5∆
  protein stability index: 3.34 ± 0.094
san1∆
  protein stability index: 3.09 ± 0.1
ubr1∆
  protein stability index: 3.55 ± 0.082

## AHVFVGTCNGDITTSIM [RPN1]
doa10∆
  protein stability index: 2.72 ± 0.048
pdr5∆
  protein stability index: 2.78 ± 0.044
san1∆
  protein stability index: 2.63 ± 0.047
ubr1∆
  protein stability index: 2.62 ± 0.053

## PFDNSTEEKCKNFIESE [YJL039C/NUP192]
doa10∆
  protein stability index: 3.27 ± 0.14
pdr5∆
  protein stability index: 3.39 ± 0.16
san1∆
  protein stability index: 3.22 ± 0.096
ubr1∆
  protein stability index: 3.32 ± 0.1

## KSKFNKSNRSYSIALSN [GAL11]
doa10∆
  protein stability index: 2.85 ± 0.075
pdr5∆
  protein stability index: 2.47 ± 0.13
san1∆
  protein stability index: 3.1 ± 0.12
ubr1∆
  protein stability index: 2.81 ± 0.064

## SKILSQAPSELELQVAK [RPS7B]
doa10∆
  protein stability index: 2.96 ± 0.057
pdr5∆
  protein stability index: 3.07 ± 0.047
san1∆
  protein stability index: 2.95 ± 0.063
ubr1∆
  protein stability index: 3 ± 0.051

## RSDLQSKIQEIESIRSC [YIL149C/MLP2]
doa10∆
  protein stability index: 1.89 ± 0.058
pdr5∆
  protein stability index: 2.79 ± 0.09
san1∆
  protein stability index: 2.67 ± 0.099
ubr1∆
  protein stability index: 2.52 ± 0.089

## RQREMAEEQTKLQSQSL [YLR018C/POM34]
doa10∆
  protein stability index: 3.18 ± 0.045
pdr5∆
  protein stability index: 3.28 ± 0.046
san1∆
  protein stability index: 3.11 ± 0.05
ubr1∆
  protein stability index: 3.1 ± 0.036

## LVLDLLTWLSSFSVCKI [IRR1]
doa10∆
  protein stability index: 2.21 ± 0.06
pdr5∆
  protein stability index: 1.59 ± 0.05
san1∆
  protein stability index: 1.65 ± 0.073
ubr1∆
  protein stability index: 1.71 ± 0.039

## NFTSPTAVVNNAAPANV [SWI1]
doa10∆
  protein stability index: 2.86 ± 0.057
pdr5∆
  protein stability index: 2.77 ± 0.08
san1∆
  protein stability index: 2.69 ± 0.088
ubr1∆
  protein stability index: 2.91 ± 0.053

## ALEEAKLSDNISICMIL [YDL116W/NUP84]
doa10∆
  protein stability index: 2.87 ± 0.076
pdr5∆
  protein stability index: 3.02 ± 0.073
san1∆
  protein stability index: 3.04 ± 0.06
ubr1∆
  protein stability index: 3.21 ± 0.043

## GIKKHSLWRRTVYSLSQ [YDL116W/NUP84]
doa10∆
  protein stability index: 1.44 ± 0.066
pdr5∆
  protein stability index: 1.29 ± 0.071
san1∆
  protein stability index: 1.29 ± 0.14
ubr1∆
  protein stability index: 1.48 ± 0.041
